In assay [1] the target is T1, cynomolgus CD45 on live cells (primary cynomolgus PBMCs) (cynomolgus monkey).
T1 construct: Endogenous CD45 on PBMCs; also called cyno CD45; Cyno PBMC
T1 chain: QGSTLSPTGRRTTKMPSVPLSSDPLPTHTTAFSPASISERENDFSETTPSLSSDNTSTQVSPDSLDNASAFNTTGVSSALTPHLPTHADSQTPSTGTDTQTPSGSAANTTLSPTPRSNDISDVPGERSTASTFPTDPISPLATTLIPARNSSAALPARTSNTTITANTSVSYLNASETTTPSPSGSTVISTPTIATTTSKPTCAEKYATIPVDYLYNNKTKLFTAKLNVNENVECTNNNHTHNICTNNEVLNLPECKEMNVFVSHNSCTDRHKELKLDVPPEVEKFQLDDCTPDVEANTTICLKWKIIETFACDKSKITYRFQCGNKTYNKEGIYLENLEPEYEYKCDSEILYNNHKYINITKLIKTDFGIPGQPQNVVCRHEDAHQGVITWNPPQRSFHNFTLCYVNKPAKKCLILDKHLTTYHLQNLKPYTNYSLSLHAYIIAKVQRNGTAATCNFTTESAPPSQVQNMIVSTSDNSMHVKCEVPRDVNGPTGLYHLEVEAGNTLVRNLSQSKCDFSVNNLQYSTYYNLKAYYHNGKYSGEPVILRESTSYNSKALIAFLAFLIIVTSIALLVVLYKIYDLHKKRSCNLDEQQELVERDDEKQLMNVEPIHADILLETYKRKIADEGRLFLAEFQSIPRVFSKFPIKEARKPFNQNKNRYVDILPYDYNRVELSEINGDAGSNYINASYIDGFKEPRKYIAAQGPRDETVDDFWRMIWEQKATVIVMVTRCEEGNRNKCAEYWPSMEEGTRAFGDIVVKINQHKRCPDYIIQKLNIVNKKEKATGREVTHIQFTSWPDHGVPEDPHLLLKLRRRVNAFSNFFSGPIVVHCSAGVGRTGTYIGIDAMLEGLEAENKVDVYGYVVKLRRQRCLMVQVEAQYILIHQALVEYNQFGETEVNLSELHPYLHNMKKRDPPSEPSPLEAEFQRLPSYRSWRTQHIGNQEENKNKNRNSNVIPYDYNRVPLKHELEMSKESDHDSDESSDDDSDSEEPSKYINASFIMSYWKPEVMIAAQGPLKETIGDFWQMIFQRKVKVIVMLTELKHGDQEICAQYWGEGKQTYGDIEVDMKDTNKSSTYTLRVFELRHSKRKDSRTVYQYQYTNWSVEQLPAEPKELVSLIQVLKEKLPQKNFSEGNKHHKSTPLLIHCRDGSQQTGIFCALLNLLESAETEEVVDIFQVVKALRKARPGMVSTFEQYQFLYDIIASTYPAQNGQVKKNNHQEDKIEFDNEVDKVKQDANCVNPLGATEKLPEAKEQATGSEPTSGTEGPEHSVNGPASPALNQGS
Kind of assay: flow cytometry on PBMCs; cyno EC50 against human EC50.

Assay [2] addresses T1, cynomolgus CD45 on live cells (primary …). The assay is described as above.
Assay [3] addresses T2, human CD45 on live cells (REH-1 cells, primary human PBMCs) (human, UniProt P08575 26-1306).
T2 construct: Endogenous CD45
T2 sequence: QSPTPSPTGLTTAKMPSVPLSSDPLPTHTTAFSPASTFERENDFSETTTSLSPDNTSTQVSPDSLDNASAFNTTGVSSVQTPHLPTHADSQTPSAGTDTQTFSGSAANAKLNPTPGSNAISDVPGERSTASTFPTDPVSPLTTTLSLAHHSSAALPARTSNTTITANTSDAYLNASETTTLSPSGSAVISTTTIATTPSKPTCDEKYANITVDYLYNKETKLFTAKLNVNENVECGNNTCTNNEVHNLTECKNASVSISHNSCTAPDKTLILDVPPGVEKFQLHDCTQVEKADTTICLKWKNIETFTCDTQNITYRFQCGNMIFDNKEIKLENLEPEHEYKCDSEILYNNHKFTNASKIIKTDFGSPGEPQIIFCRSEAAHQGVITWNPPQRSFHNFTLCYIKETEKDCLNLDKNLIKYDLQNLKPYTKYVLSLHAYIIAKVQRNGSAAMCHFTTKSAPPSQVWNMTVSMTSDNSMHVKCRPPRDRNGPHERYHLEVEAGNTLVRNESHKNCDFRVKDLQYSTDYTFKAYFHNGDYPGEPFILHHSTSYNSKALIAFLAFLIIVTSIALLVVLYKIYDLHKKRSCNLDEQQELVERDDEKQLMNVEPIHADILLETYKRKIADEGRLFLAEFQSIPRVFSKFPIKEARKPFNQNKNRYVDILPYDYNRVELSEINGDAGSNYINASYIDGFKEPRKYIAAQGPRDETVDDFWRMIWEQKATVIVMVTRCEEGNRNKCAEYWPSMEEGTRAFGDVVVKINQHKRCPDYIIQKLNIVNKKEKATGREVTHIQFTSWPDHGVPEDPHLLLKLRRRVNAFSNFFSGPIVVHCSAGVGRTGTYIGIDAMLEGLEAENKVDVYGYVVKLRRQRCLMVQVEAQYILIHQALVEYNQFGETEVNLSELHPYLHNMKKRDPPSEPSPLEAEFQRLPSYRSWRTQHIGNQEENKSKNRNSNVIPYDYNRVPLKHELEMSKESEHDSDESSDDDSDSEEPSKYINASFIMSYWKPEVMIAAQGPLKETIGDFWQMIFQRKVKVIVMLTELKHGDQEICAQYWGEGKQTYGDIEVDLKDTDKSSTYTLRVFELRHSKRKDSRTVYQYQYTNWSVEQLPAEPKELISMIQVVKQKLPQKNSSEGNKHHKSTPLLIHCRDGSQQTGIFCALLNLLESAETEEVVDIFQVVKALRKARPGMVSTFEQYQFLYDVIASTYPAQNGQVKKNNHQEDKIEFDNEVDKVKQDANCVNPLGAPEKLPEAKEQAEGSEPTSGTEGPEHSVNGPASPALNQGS
Kind of assay: flow cytometry on human PBMCs, overnight 37 C, AF488 anti-human IgG. A general note: Flow cytometry measures light scatter and fluorescence of single cells or particles in a stream.

Assay [4] concerns the target T2, human CD45 on live cells (REH-1 cells, …). The assay is described as above. The source holds these as a separate data set.
For assay [5], the target named is T1, cynomolgus CD45 on live cells (primary …). Kind of assay: flow cytometry on cynomolgus PBMCs, overnight 37 C, AF488 anti-human IgG.
For assay [6] the target is unchanged. The assay is described as above.
Assay [7] has as its target T3, purified human CD45 ectodomain (human CD45RABC antigen) (human, UniProt P08575 26-577).
T3 construct: also called hCD45
T3 sequence: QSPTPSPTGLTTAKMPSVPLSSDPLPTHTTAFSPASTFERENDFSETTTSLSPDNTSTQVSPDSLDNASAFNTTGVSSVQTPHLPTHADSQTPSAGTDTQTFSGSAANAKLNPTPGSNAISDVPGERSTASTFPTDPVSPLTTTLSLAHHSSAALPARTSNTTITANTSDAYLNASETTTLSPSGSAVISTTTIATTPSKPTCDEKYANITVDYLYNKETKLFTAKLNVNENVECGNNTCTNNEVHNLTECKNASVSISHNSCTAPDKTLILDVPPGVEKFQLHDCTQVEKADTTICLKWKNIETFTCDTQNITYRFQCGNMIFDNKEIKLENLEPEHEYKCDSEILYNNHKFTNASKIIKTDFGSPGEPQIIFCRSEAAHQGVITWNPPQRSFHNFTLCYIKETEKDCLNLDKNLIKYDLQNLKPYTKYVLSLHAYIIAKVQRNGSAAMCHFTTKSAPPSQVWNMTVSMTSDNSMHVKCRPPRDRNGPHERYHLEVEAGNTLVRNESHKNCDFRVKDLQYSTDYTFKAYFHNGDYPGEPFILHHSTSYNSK
Briefly: BLI (Octet Red96), antibody on anti-human Fc sensor, 100 nM human CD45 ectodomain, 1:1 fit. On the technique in general: Biolayer interferometry detects binding as a change in optical thickness at a sensor tip.

Assay [8] has as its target T1, cynomolgus CD45 on live cells (primary …). Kind of assay: flow cytometry on PBMCs; cyno EC50 against human EC50.
For assay [9], the target named is T2, human CD45 on live cells (REH-1 cells, …). Kind of assay: flow cytometry on human PBMCs, overnight 37 C, AF488 anti-human IgG. This is another data set of the same source.
For assay [10], the target named is T1, cynomolgus CD45 on live cells (primary …). Briefly: flow cytometry on cynomolgus PBMCs, overnight 37 C, AF488 anti-human IgG.
Assay [11] concerns the target T3, purified human CD45 ectodomain (human …). Kind of assay: BLI (Octet Red96), IgG on anti-human Fc sensor, 100 nM CD45 ectodomain, 1:1 fit.

By EC50 is commonly meant the concentration that produces a half-maximal response. A higher EC50 goes with a less potent agent. Usually Kd stands for a measure of binding affinity in units of concentration. The low end stands for higher affinity, the high end for lower affinity. As a reminder, the koff is the rate constant with which the complex falls apart. Usually kon stands for the second-order rate constant of association. Read a high kon as faster complex formation.

Where two headings read alike, the source gives them in different places.

B1: Antibody A (AbA) (antibody, V domains shown)
VH: EVQLLESGGGLVQPGGSLRLSCAASGFTFNNYWMTWVRQAPGKGLEWVSSISSSGGSIYYPDRVKGRFTISRDNSKNTLYLQMNSLRAEDTAVYYCARDERWAGAMDAWGQGTTVTVSS
VL: DIQMTQSPSSLSASVGDRVTITCKASQNINKNLDWYQQKPGKAPKLLIYETNNLQTGVPSRFSGSGSGTDFTLTISSLQPEDFATYYCYQHNSRFTFGQGTKLEIK
notes: also called humanized clone AbA
For B1, the “Fold Cyno vs Human (EC50)” value in assay [1] stood at 2.2 fold. In addition, the “Fold Cyno v/s Human (EC50)” value in [2] is 1.8 fold. In addition, the EC50 in assay [3] stood at 0.58 nM; in [4], 0.78 nM; in [5], 1.25 nM; in assay [6] it was 1.37 nM. The molecule further showed a Kd in [7] of 3.6 nM. The same molecule showed a koff in [7] of 0.000181 s⁻¹. The molecule also yielded a kon in [7] of 50300 M⁻¹ s⁻¹.

B2: AbA_D265C_LALA_H435A (antibody, human IgG1, kappa, L234A L235A, V domains shown)
VH: EVQLLESGGGLVQPGGSLRLSCAASGFTFNNYWMTWVRQAPGKGLEWVSSISSSGGSIYYPDRVKGRFTISRDNSKNTLYLQMNSLRAEDTAVYYCARDERWAGAMDAWGQGTTVTVSS
VL: DIQMTQSPSSLSASVGDRVTITCKASQNINKNLDWYQQKPGKAPKLLIYETNNLQTGVPSRFSGSGSGTDFTLTISSLQPEDFATYYCYQHNSRFTFGQGTKLEIKR
notes: also called Fc variant of AbA
On to B2, for which the “Cyno/Human Ratio (EC50)” value in assay [8] worked out at 1.49 ratio. Further, the half-maximal effective concentration (EC50) was 2.3 nM in assay [9] and 3.4 nM in assay [10].

B3: AbC_D265C_LALA_H435A (antibody, human IgG1, kappa, L234A L235A, V domains shown)
VH: EVQLVESGGGLVQPGGSLRLSCAASGFTFNNYWMTWVRQAPGKGLEWVSSISSSGGSIYYPDSVKDRFTISRDNAKNSLYLQMNSLRAEDMAVYYCARLYYYDGGGDAWGQGTLVTVSS
VL: GIQMTQSPSSLSASVGDRVTITCKASQDINKYLDWYQQKPGKAPKLLIYNTNNLHTGIPSRFSGSGSGTDYTLTISSLQPEDFATYYCLQHISRWTFGGGTKVEIKR
notes: also called Fc variant of AbC
In the case of B3, the “Cyno/Human Ratio (EC50)” value in assay [8] was 1.49 ratio. The EC50 was 2.2 nM in [9] and 3.3 nM in [10].

B4: Antibody B (AbB) (antibody, IgG1, V domains shown)
VH: EVQLVESGGGLVQPGGSLRLSCAASGFTFTNFWMAWIRQAPGKGLEWVASISSSGGSIYYPDSVKDRFTISRDNSKNTLYLQMNSLRAEDTAVYYCVKFHHYSGGGDAWGQGTLVTVSS
VL: DIQMTQSPSSLSASVGDRVTITCKASQNINKYLDWYQQKPGKAPKLLIHYTNNLHTGIPSRFSGSGSGTDYTLTISSLQPEDFATYYCLQHSSRWTFGGGTKVEIK
notes: also called humanized clone AbB
For the molecule B4, the “Fold Cyno vs Human (EC50)” value in assay [1] amounted to 1.7 fold. In assay [2], the “Fold Cyno v/s Human (EC50)” value was 1.9 fold. Also, the concentration for a half-maximal effect (EC50) in assay [3] amounted to 0.67 nM; in assay [4], 0.76 nM; in assay [5], 1.12 nM; in assay [6], 1.42 nM. Moreover, in assay [7], the Kd was found to be 5.46 nM. In assay [7], this molecule displayed a koff of 0.000239 s⁻¹. In addition, the kon in [7] worked out at 43800 M⁻¹ s⁻¹.

B5: AbB_D265C_LALA_H435A (antibody, human IgG1, kappa, L234A L235A, V domains shown)
VH: EVQLVESGGGLVQPGGSLRLSCAASGFTFTNFWMAWIRQAPGKGLEWVASISSSGGSIYYPDSVKDRFTISRDNSKNTLYLQMNSLRAEDTAVYYCVKFHHYSGGGDAWGQGTLVTVSS
VL: DIQMTQSPSSLSASVGDRVTITCKASQNINKYLDWYQQKPGKAPKLLIHYTNNLHTGIPSRFSGSGSGTDYTLTISSLQPEDFATYYCLQHSSRWTFGGGTKVEIKR
notes: also called Fc variant of AbB
Turning to B5, the “Cyno/Human Ratio (EC50)” value in assay [8] stood at 1.36 ratio. Also, the EC50 is 2.2 nM in [9] and 2.9 nM in assay [10].

B6: Antibody 1 (Ab1) (antibody, V domains shown)
VH: QVQLVESGGGLVKPGGSLRLSCAASGFTFSSYSMNWVRQAPGKGLEWVSYISSSSSTIYYADSVKGRFTISRDNAKNSLYLQMNSLRAEDTAVYYCARGGQYYYDSSRYGEVAFDIWGQGTMVTVSS
VL: not shown
notes: Fully human IgG from yeast display; also called Parent 1; parent clone Ab1
As for B6, in assay [11], the koff amounted to 0.0499 s⁻¹ and the kon came to 458000 M⁻¹ s⁻¹.

The record behind these values is patent publication US20220267441A1 (VOR BIOPHARMA, published 2022).
